Assay results reported in paper PMC3298473, “Effects of partner proteins on BCA2 RING ligase activity” (BMC Cancer, 2012).

What was measured:
[1] = target: T1, Recombinant Flag-BCA2 RING mutant (C228/231A), purified (human, UniProt Q9Y4L5 1-304, C228/231A | C228/231A); test: pull-down; purified recombinant Flag-BCA2 (wild type or mutants) incubated with sepharose-immobilised GST control or GST-14-3-3σ from bacterial cell lysates; immunoblot; conditions: both partners purified
T1 construct: BCA2, a 304 amino acid protein, with C228A and C231A in the RING domain (ligase-dead); also called RING mt; source: recombinant, purified

[2] = target: T2, Recombinant Flag-BCA2, wild type, purified (human, UniProt Q9Y4L5 1-304); test: as above; conditions: both partners purified
T2 construct: BCA2, a 304 amino acid protein; also called Purified recombinant wild-type BCA2; source: recombinant, purified
T2 sequence (Q9Y4L5 whole entry): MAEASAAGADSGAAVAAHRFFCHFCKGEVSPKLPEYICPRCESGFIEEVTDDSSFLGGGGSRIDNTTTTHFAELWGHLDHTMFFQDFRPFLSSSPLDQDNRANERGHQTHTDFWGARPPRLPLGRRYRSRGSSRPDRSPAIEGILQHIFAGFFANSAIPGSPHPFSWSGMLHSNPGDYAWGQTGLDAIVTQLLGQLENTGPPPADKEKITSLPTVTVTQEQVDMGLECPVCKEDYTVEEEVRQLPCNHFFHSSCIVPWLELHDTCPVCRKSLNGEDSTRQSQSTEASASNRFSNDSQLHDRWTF

T1 sequence (Q9Y4L5 other isoform, or with tags, fused parts or gaps C228/231A | C228/231A | C228/231A | C228/231A | mutant): as the sequence (Q9Y4L5 whole entry) above, with C228A, C231A counted along it

binding result [1]: binds | binding result [2]: binds
B1: GST-tagged 14-3-3σ (natural protein, human, UniProt P31947 1-248, looked up)
chain: MERASLIQKAKLAEQAERYEDMAAFMKGAVEKGEELSCEERNLLSVAYKNVVGGQRAAWRVLSSIEQKSNEEGSEEKGPEVREYREKVETELQGVCDTVLGLLDSHLIKEAGDAESRVFYLKMKGDYYRYLAEVATGDDKKRIIDSARSAYQEAMDISKKEMPPTNPIRLGLALNFSVFHYEIANSPEEAISLAKTTFDEAMADLHTLSEDSYKDSTLIMQLLRDNLTLWTADNAGEEGGEAPQEPQS
notes: 14-3-3σ; the GST construct is not described in the methods; also called GST-14-3-3σ; source: bacterial cell lysates, immobilised on sepharose
